Tests used:
[1] = target: T1, mouse MASP-2 mMASP2-D456 (mouse, UniProt Q91WP0 287-685); assay: Octet RED96e BLI, antibody captured on AHC sensor, antigen in solution
T1 construct: Made by the same method as hMASP2-D456
Experimental: (§1) Affinities of candidate antibodies JYB1931A63 and JYB1931A13 to human hMASP2-D456 (KACTUS, batch number: 080203), cynomolgus monkey cMASP2-D456 (KACTUS, batch number: 030301), and mouse mMASP2-D456 (KACTUS, batch number: 030401) were measured by Octet RED96e (Fortebio). The antigen and antibody were diluted with 1×PBST (1×PBS: Sangon, B548117-0500; 0.02% Tween 20: sigma-aldrich, P1379) at a concentration of 30 nM for the antigen and a concentration of 5 μg/mL for the antibody.
First, the sample was added to a 96-well plate (Greiner bio-one, 655209) with a system of 200 μL/well. Then, software parameters were set, the temperature of the plate was set to 30° C., and the frequency for collecting standard dynamic signals was 5.0 Hz. Next, an AHC sensor (Fortebio, article number: 18-0015) was pre-wet with 1×PBST for 10 minutes, and then data were acquired. […]
(§2) A binding rate (Ka) and a dissociation rate (Kd) in a 1:1 antigen-antibody binding manner were measured by Fortebio's Data Analysis 12.0 software to calculate an equilibrium dissociation constant (KD) of the antibody.

[2] = target: T2, cynomolgus monkey MASP-2 cMASP2-D456 (cynomolgus monkey); assay: Octet RED96e BLI, antibody captured on AHC sensor, antigen 30 nM, 1:1 fit
T2 construct: Made by the same method as hMASP2-D456
Experimental: as §1
(§3) First, the sample was added to a 96-well plate (Greiner bio-one, 655209) with a system of 200 μL/well. Then, software parameters were set, the temperature of the plate was set to 30° C., and the frequency for collecting standard dynamic signals was 5.0 Hz. Next, an AHC sensor (Fortebio, article number: 18-0015) was pre-wet with 1×PBST for 10 minutes, and then data were acquired. Each cycle included the following steps: 1) immersing the sensor in a buffer solution for 60 seconds; 2) detecting whether the antigen had non-specific binding with the sensor; 3) regenerating the sensor with 10 mM pH 1.7 glycine solution; 4) immersing the sensor in the buffer solution for 60 seconds; 5) immobilizing the antibody on the sensor for 60 seconds; 6) immersing the sensor in the buffer solution for 180 seconds; 7) binding the antigen and the antibody for 180 seconds; 8) dissociating the antigen and the antibody for 5 minutes; and 9) regenerating the sensor.
as §2

[3] = target: T3, recombinant human MASP-2 protein hMASP2-D456 (human, UniProt O00187 287-686); assay: as above
Experimental: as §1, §3, §2

[4] = target: T3, recombinant human MASP-2 protein …; assay: ELISA on plate-coated hMASP2-D456, detection with HRP secondary antibody, OD450/630nm; unit taken from the axis 'Antibody nM (Ig)'
Experimental: (§4) The hMASP2-D456 was diluted to 1.0 μg/mL and 0.5 μg/mL with a carbonate buffer solution (CBS), each added to a high binding transparent polystyrene 96-well plate (Nunc) with 100 μL/well and wrapped overnight at 4° C. The next day, the ELISA plate was washed twice on an automatic plate washer with a washing buffer (PBS+0.05% Tween 20 (sigma)). 300 μL of blocking buffer (PBS+0.05% Tween 20 (sigma)+1% BSA) was added to each well, and the ELISA plate was sealed at room temperature for 1 hour. Then the ELISA plate was washed twice with the washing buffer on the automatic plate washer, and the monoclonal antibody was diluted with the blocking buffer to 8 gradients. The monoclonal antibody was sequentially added to each well of the ELISA plate and incubated at room temperature for 1 hour, and then the plate was washed 3 times according to the above method. 100 μL of goat anti-mouse HRP (Sigma, article number: M4280) or rabbit anti-rat Fc-HRP (Sigma, article number: A5795) diluted at 1:5000 in the blocking buffer was added to each well. Incubation was performed at room temperature for 1 hour, and then the plate was washed 3 times according to the above method. […] The plate was read at 450 nm on a Thermo Multiscan FC. Graphs were drawn with Graphpad and EC50 was calculated. […]

[5] = target: T2, cynomolgus monkey MASP-2 cMASP2-D456; assay: ELISA on plate-coated cMASP2-D456, detection with HRP secondary antibody, OD450/630nm
Experimental: as §4, with “The mouse mMASP2-D456 and cynomolgus monkey cMASP2-D456 were diluted to” for “The hMASP2-D456 was diluted to”, “carbonate buffer solution, each added” for “carbonate buffer solution (CBS), each added”, “monoclonal antibody 50A6 was diluted” for “monoclonal antibody was diluted”, “buffer to 15.0 μg/mL at 11 gradients. The” for “buffer to 8 gradients. The”, “at 1:5000 with the blocking” for “at 1:5000 in the blocking”

[6] = target: T2, cynomolgus monkey MASP-2 cMASP2-D456; assay: ELISA on plate-coated cMASP2-D456, detection with HRP secondary antibody, OD450/630nm; unit taken from the axis 'Antibody pM (Ig)'
Experimental: as §4, with “The mouse mMASP2-D456 and cynomolgus monkey cMASP2-D456 were diluted to” for “The hMASP2-D456 was diluted to”, “carbonate buffer solution, each added” for “carbonate buffer solution (CBS), each added”, “monoclonal antibody 50A6 was diluted” for “monoclonal antibody was diluted”, “buffer to 15.0 μg/mL at 11 gradients. The” for “buffer to 8 gradients. The”, “at 1:5000 with the blocking” for “at 1:5000 in the blocking”

[7] = target: T3, recombinant human MASP-2 protein …; assay: ELISA on plate-coated hMASP2-D456, detection with HRP secondary antibody, OD450/630nm; unit taken from the axis 'Antibody pM (Ig)'
Experimental: as §4

[8] = target: T1, mouse MASP-2 mMASP2-D456; assay: ELISA on plate-coated mMASP2-D456, OD450/630nm
Experimental: as §4, with “The mouse mMASP2-D456 and cynomolgus monkey cMASP2-D456 were diluted to” for “The hMASP2-D456 was diluted to”, “carbonate buffer solution, each added” for “carbonate buffer solution (CBS), each added”, “monoclonal antibody 50A6 was diluted” for “monoclonal antibody was diluted”, “buffer to 15.0 μg/mL at 11 gradients. The” for “buffer to 8 gradients. The”, “at 1:5000 with the blocking” for “at 1:5000 in the blocking”

T2 sequence (chain, as listed by the source limits assumed): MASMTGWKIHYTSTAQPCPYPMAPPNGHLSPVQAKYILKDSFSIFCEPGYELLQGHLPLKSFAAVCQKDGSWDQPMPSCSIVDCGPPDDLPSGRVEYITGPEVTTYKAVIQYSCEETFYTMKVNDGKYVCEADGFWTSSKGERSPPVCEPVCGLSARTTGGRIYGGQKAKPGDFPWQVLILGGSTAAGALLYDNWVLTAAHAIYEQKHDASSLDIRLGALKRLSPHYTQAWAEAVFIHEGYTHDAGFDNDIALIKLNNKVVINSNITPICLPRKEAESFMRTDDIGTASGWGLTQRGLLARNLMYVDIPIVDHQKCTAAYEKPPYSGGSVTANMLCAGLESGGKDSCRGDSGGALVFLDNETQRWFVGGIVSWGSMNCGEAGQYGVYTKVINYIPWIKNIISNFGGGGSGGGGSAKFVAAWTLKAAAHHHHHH
T1 sequence (Q91WP0 other isoform, or with tags, fused parts or gaps limits assumed): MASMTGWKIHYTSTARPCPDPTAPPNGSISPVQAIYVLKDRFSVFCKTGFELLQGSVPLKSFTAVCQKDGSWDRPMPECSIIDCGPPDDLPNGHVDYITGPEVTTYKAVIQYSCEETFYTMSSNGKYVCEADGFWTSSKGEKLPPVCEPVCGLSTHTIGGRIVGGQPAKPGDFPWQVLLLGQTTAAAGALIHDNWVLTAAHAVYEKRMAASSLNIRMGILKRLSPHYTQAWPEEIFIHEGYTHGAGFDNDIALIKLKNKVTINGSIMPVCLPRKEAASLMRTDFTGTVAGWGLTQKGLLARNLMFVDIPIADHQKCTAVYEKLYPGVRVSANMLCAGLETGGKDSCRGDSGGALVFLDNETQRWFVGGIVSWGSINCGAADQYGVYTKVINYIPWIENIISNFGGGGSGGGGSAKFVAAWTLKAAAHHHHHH
T3 sequence (O00187 other isoform, or with tags, fused parts or gaps limits assumed): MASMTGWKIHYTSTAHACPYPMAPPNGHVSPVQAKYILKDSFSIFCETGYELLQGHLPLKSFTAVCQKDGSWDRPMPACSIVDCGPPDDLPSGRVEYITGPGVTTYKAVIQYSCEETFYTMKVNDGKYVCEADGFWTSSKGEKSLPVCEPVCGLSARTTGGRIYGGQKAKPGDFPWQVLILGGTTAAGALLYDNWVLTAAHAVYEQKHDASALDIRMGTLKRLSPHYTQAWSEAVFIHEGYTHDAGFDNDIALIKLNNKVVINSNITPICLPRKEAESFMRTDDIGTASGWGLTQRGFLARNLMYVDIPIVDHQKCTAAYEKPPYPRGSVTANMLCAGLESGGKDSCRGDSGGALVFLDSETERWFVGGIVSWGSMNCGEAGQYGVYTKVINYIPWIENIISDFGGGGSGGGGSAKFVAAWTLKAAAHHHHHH

| binding result [1] | Kd [2] [pM] | Kd [3] [pM] | Binder | other results |
| --- | --- | --- | --- | --- |
| no binding (tested: 30 nM antigen) | 1310 | 335 | humanized anti-MASP-2 antibody JYB1931A63 (antibody, V domains shown, Humanized from 50A6 and expressed in ExpiCHO as a full antibody; captured on an AHC (anti-human Fc) sensor) VH: EVQLVESGGGLVQPGGSLRLSCAASGFTFNDYNMAWVRQAPGKGLEWVATILFDGSRTYYRDSVKGRFTISRDNAKNSLYLQMNSLRAEDTAVYYCSTESPYYSEGYYQGYFDYWGQGTLVTVSS VL: EIVLTQSPATLSLSPGERATLSCRASQSVSTSIHWYQQKPGQAPRLLIKYASRSISGIPARFSGSGSGTDFTLTISSLEPEDFAVYYCQQSYSSLYTFGQGTKLEIK |  |
| no binding (tested: 30 nM antigen) | 305 | 1170 | humanized anti-MASP-2 antibody JYB1931A13 (antibody, V domains shown, Humanized from 47A1 and expressed in ExpiCHO as a full antibody; captured on an AHC (anti-human Fc) sensor) VH: QVQLQESGPGLVKPSQTLSLTCTVSGYSITSDYAWNWIRQPPGKGLEWIGYISYSGRTSYNPSLKSRVTISRDTSKNQFSLKLSSVTAADTAVYYCARYWGDYWGQGTLVTVSS VL: DIQMTQSPSSLSASVGDRVTITCKASQNVGSNVAWFQQKPGKAPKPLIYSASYRYSGVPSRFSGSGSGTDFTLTISSLQPEDFATYFCHQYNTYPLTFGGGTKVEIK |  |
|  |  |  | mouse anti-human MASP-2 monoclonal antibody 47A1 (antibody, V domains shown, Mouse hybridoma monoclonal antibody purified from serum-free culture and detected with anti-mouse HRP; the mouse constant regions are not; also called 47A1 antibody) VH: DVQLQESGPGLVKPSQSLSLTCTVTGYSITSDYAWNWIRQFPGNKLEWMGYISYSGRTSYNPSLKSRISITRNTSTNQFFLQLNSVTTEDTATYFCARYWGDYWGQGTTLTVSS VL: DIVMTQSQKFMSTSVGDRVSVTCKASQNVGSNVAWFQQKPGQSPKPLIYSASYRYSGVPDRFTGSGSGTDFTLTISNVQSEDLAEYFCHQYNTYPLTFGAGTKLELN | EC50 [4]: 333 pM; EC50 (read off the curve) [5]: ~600 pM |
|  |  |  | rat anti-human MASP-2 monoclonal antibody 50A6 (antibody, V domains shown, Rat hybridoma monoclonal antibody purified from serum-free culture and detected with anti-rat Fc-HRP; the rat constant regions are not; also called 50A6 antibody) VH: EVQLVESGGGLVQPGRSLSLSCAASGFTFNDYNMAWVRQTPKKGLEWVATILFDGSRTYYRDSVKGRFTISRENAKSTLYLQMDSLRSEDTATYYCSTESPYYSEGYYQGYFDYWGQGVMVTVSS VL: NIVLTQSPATLSVTPGESVSLSCRASQSVSTSIHWYQQRSNESPRLLIKYASRSISGIPSRFSGSGSGTDFTLSINRVESEDFSIYYCQQSYSSLYTFGAGTKLELR | EC50 [6]: 67 pM; EC50 [7]: 93.3 pM; binding result [8]: no binding |
